Laboratory results: patent US20220306713A1

B1: anti-human PD-L1 antibody 5G11 (antibody, from another filing, V domains shown)
VH: QVQLKQSGPGLVQPSQSLSITCTVSGFSLTTYGVHWVRQSPGKGLEWLGVIWRGVTTDYNAAFMSRLTITKDNSKSQVFFKMNSLQANDTAIYYCARLGFYAMDYWGQGTSVTVSS
VL: SIVMTQTPKFLLVSAGDRVTITCKASQSVSNDVAWYQQKPGQSPKLLIYYAANRYTGVPDRFTGSGYGTDFTFTISIVQAEDLAVYFCQQDYTSPYTFGGGTKLEIK
B2: anti-human PD-1 antibody 7A4D (antibody, from another filing, V domains shown)
VH: QIQLVQSGSELKKPGASVKVSCKASGYTFTNFGMNWVRQAPGQGLKWMGWISGYTREPTYAADFKGRFVISLDTSVSTAYLQISSLKAEDTAVYYCARDVFDYWGQGTLVTVSS
VL: DIVLTQSPASLAVSPGQRATITCRASESVDNYGYSFMNWFQQKPGQPPKLLIYRASNLESGVPARFSGSGSRTDFTLTINPVEADDTANYYCQQSNADPTFGQGTKLEIKR

Columns and labels:
[1] = target: mouse PD-L1 on the surface of mouse tumor cell lines A20 and CT26 (mouse) (UniProt Q9EP73); assay: flow cytometry, PE-labelled protein, 0.5 ug in 100 ul, A20 cells (high PD-L1), after Fc block; A20-Blank X-AMean 76.61
[2] = target: mouse PD-L1 on the surface of mouse tumor cell lines A20 and CT26 (mouse) (UniProt Q9EP73); assay: flow cytometry, PE-labelled protein, 2.5 ug in 100 ul, A20 cells (high PD-L1), after Fc block; A20-Blank X-AMean 76.61
[3] = target: mouse PD-L1 on the surface of mouse tumor cell lines A20 and CT26 (mouse) (UniProt Q9EP73); assay: flow cytometry, PE-labelled protein, 2.5 ug in 100 ul, CT26 cells (low PD-L1), after Fc block; CT26-Blank X-AMean printed 254.50
[4] = target: recombinant human PD-L1 antigen (human) (UniProt Q9NZQ7); assay: SPR (Biacore T200), antibody captured on anti-human IgG Fc CM5 chip, recombinant human PD-L1 as analyte, 1:1 Langmuir fit
[5] = target: recombinant human PD-1 antigen (human) (UniProt Q15116); assay: SPR (Biacore T200), antibody captured on anti-human IgG Fc CM5 chip, recombinant human PD-1 as analyte, 1:1 Langmuir fit
Sequence of UniProt Q15116 (Q15116 25-167 limits assumed): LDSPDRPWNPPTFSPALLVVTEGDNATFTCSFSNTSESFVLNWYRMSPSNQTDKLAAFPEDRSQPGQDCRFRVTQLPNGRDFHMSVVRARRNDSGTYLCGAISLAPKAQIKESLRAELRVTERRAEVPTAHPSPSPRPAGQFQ

Sequence of UniProt Q9EP73 (Q9EP73 19-290): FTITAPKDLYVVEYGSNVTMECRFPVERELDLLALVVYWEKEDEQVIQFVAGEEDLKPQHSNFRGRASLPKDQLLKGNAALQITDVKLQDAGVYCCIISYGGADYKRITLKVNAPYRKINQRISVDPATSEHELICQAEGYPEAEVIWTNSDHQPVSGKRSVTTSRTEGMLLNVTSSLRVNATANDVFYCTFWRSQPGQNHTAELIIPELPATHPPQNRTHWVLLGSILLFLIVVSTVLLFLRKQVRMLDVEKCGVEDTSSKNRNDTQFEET
Sequence of UniProt Q9NZQ7 (Q9NZQ7 19-238 limits assumed): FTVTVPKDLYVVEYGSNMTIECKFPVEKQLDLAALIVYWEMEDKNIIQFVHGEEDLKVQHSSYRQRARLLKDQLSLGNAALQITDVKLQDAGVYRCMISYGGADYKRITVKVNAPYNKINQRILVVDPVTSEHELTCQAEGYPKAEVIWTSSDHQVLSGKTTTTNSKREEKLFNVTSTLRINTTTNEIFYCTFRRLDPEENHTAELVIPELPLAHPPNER

Molecule	X-AMean [1]	X-AMean [2]	X-AMean [3]	further results
anti-PD-L1(10F.9G2) antibody-HC-mIL-10 fusion protein (from UniProt P18893 19-178)	1830	5930	590	–
rat-anti-mouse PD-L1 monoclonal antibody 10F.9G2	949	4990	885	–
B1	–	–	–	Kd [4]: 290 pM; koff [4]: 0.000779 s⁻¹; kon [4]: 2.65e+06 M⁻¹ s⁻¹
B2	–	–	–	Kd [5]: 830 pM; koff [5]: 0.000806 s⁻¹; kon [5]: 974000 M⁻¹ s⁻¹
